US9731036 (dated 2017)
Where a chain is given by its changes, count along the chain named.

Columns and labels:
Experiment in all cases: flow cytometry on 721.221 transfectants
[1] = biological target: T1, CCM6-SL43,44RQ (CEACAM6 with R and Q at positions 43 and 44 instead of S and L) (human, UniProt P40199 35-320)
T1 construct: whole, on cells; also called CEACAM6-SL43,44RQ
T1 sequence (looked up): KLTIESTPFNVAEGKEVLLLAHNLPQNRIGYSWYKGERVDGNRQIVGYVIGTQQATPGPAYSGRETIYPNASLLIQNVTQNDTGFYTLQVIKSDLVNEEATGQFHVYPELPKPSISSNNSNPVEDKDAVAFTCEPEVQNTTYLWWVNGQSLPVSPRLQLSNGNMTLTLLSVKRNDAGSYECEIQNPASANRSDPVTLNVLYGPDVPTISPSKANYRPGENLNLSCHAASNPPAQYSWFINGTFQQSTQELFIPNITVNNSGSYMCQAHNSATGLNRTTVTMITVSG
Source text: (§1) The staining of the secondary reagent FITC-conjugated goat anti-mouse F(ab_)2 of each cell type was used as background (_). The y-axis indicates the median fluorescence intensity (MFI). […] The y-axis indicates the median fluorescence intensity (MFI). […] The E:T cell ratio was 2:1.
(§2) Specificity of CEACAM1 Binding to CEACAM6 is Controlled by the Presence of Both 43R and 44Q Residues To determine whether both residues are required for binding, the amino acid residues in positions 43 and 44 in CEACAM1 (contains 43R44Q) and CEACAM6 (contains 43S44L) were mutated. Using site-directed mutagenesis in the CEACAM1, the 43R residue was changed to 43A (CCM1-R43A) and the 44Q residue was changed to 44L (CCM1-Q44L). In CEACAM6, the 43S was changed to 43R (CCM6-S43R) and 44L was changed to 44Q (CCM6-L44Q). All mutants were generated as described in Materials and Methods and stably transfected into 0.221 cells. The expression level was monitored by Kat4c mAb, and conformation was monitored by 5F4 mAb (FIG. 7A). […] Similar results were obtained when both 44Q and 43R residues in CEACAM1 were mutated (FIG. 5).

[2] = biological target: T2, CCM1-RQ43,44SL (CEACAM1 with S and L at positions 43 and 44 instead of R and Q) (human, UniProt P13688 35-526)
T2 construct: whole, on cells; also called CEACAM 1-RQ43,44SL
T2 sequence (looked up): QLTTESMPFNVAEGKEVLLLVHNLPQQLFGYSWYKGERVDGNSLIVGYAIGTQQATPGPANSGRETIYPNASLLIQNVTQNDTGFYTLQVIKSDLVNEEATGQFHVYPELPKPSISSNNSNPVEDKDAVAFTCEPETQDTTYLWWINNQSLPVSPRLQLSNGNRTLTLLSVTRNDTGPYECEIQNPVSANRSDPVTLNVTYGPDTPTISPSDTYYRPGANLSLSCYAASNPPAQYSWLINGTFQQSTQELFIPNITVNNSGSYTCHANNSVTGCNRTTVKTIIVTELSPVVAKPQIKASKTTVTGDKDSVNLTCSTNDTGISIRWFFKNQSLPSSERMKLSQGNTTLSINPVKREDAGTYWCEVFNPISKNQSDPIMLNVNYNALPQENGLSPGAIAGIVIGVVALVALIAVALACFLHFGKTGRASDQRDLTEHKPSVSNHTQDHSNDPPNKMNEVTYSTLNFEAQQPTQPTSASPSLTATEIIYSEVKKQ
Source text: as §1, §2

[3] = biological target: T3, CEACAM6 protein, whole, on 721.221 cells (human, UniProt P40199 35-320, GPI-anchored to the cell membrane)
T3 construct: whole, on cells; also called CCM6; CD66c
T3 sequence (looked up): T1 sequence (looked up) with R43S, Q44L
Source text: as §1, §2

[4] = biological target: T4, CEACAM1 protein (CD66a), whole, on cells (human, UniProt P13688 35-526)
T4 construct: whole, on cells; also called CCM1
T4 sequence (looked up): T2 sequence (looked up) with S43R, L44Q
Source text: as §1, §2

Measured: binding result

B1: CD99-Ig fusion protein (control) (Fc fusion, UniProt P14209 23-122, looked up)
chain: DGGFDLSDALPDNENKKPTAIPKKPSAGDDFDLGDAVVDGENDDPRPPNPPKPMPNPNPNHPSSSGSFSDADLADGVSGGEGKGGSDGGGSHRKEGEEAD
notes: extracellular domain; Made in COS-7 cells, purified on protein G; construct described elsewhere; also called control CD99-Ig; not shown: human IgG1 Fc portion
no binding: all assays above
